{"source": "the DeepSol protein solubility set", "experiment": "soluble on expression in E. coli; label from the status in PepcDB or PDB records"}
{"sequence": "GSHMLFAEFAEFCERLEKISSTLELTARIAAFLQKIEDERDLYDVVLFITGKVYPPWDERELGVGIGLLYEALENVSGVKRSEIESMIREYGDLGLVAEQLIKKKKMTTLAFEELTVRKVRETFDEIASLTGEGSMKRKIMLLTGLYGLATPLEARYLTRLILNEMRLGVGEGIMRDAIARAFRADPETVERAYMITNDLGRVAVVAKKEGEEGLRKMKIEIHIPVRMMLAQVAESLESAVREMRTAAVEWKFDGSRVQVHWDGSRVTIYSRRLENVTNALPDIVEEIKKSVKPGVILDGEVIAVKEGKPMPFQHVLRRFRRKHDVAKMVEKIPLEAHFFDILYHDGECIDLPLRERRKLLESAVNESEKIKLAKQIVTDSVDEVRKMYDEAISAGHEGVMIKLPSSPYIPGKRGKNWLKVKAIMETLDLVVVGGEWGEGKRSHWLSSFELACLDPVTGKLLKVGRVATGFTEEDLEELTEMFRPLIVSQQGKKVEFIPKYVFEVAYQEIQKSPKYESGYALRFPRFVRLRDDKDVDEADTIERVENLYKLQFEVKRQ", "values": [{"measurement": "soluble on expression in E. coli", "value": "soluble"}]}
{"sequence": "MSLITVANRIFVNPERAAAFEERFRRRPRRVDRQPGFIADHVLRPTQAGDPYVVLSFWDSRAAFEAWRTSPGFKDGHKEGHHHHHH", "values": [{"measurement": "soluble on expression in E. coli", "value": "not soluble"}]}
{"sequence": "MGSDKIHHHHHHMDTRIRDFVKTNECYFAVNTYYHPENSVISFLRYINIDKIGNHLLKDYELDENDIRILNGERFIKVADSSKAYAILKEYYPEYLFYDEINDVLLHAVPKTNIKEILSPQKRLEEVLNEQNTEAEIKCAKLADTLHDYGLEYKNMGVSGSTVLKLNNENSDIDFVIYGMEKHKIAREILSVTFKDGVLEPLSEDFWKKAYVKRIKDGTLTYDEFVWHEKRKLNRGVVDGVMFDLLATREWDEITENYGDKKYKNLGFIQIKAKVKDDTFVFDNPAVYKVENVEILNNENNAEVLASEIEEVVSFTHTYAGSTYNGEEIIVRGKLEEVSGKETYKRVVVGTTREAFNEYVKLAK", "values": [{"measurement": "soluble on expression in E. coli", "value": "not soluble"}]}
{"sequence": "MKVLFVYAGMHPAHEPFVEAVKADVYPAYHKDVNGFVKFVEGLKMAREYPDYDVYILEGGMPMFPMYLRKKLFRKNGFVVGLLADETFINLVERQPHYSTAETLIHRISAKVLDAAIAVSPFVKEYAEKIIDVPIEVVRPAIPKDSYEKLGKVKPNLESNVIVSVGQPRFSIGMDVLVEQFRIAKKQIPDLELWIVGKGHPKEYERVEGVKVLGYVEDLSEVFEEASLFVHAGRCSAYPVATLEAMRAGLPVVVSTMTGTKEIVERVEEQVKREFGLNYDGNKFIQPLNRIFEGIVEYFKLDSEVRRIMSELYKKESEEFEPGKRGREFKEKFKKLLANFNNKEVP", "values": [{"measurement": "soluble on expression in E. coli", "value": "not soluble"}]}
{"sequence": "MSLPTTIQAISAEAINLPLTEPFAIASGAQAVAANVLVKVQLADGTLGLGEAAPFPAVSGETQTGTSAAIERLQSHLLGADVRGWRKLAAMLDHAEHEAAAARCGLEMAMLDALTRHYHMPLHVFFGGVSKQLETDMTITAGDEVHAAASAKAILARGIKSIKVKTAGVDVAYDLARLRAIHQAAPTAPLIVDGNCGYDVERALAFCAACKAESIPMVLFEQPLPREDWAGMAQVTAQSGFAVAADESARSAHDVLRIAREGTASVINIKLMKAGVAEGLKMIAIAQAAGLGLMIGGMVESILAMSFSANLAAGNGGFDFIDLDTPLFIAEHPFIGGFAQTGGTLQLADVAGHGVNLEGHHHHHH", "values": [{"measurement": "soluble on expression in E. coli", "value": "soluble"}]}
{"sequence": "MAHHHHHHMNFLKRNATNICKGKVLGKHLNTSVQELTNLNKRKFSNIINLGKYGQRYQATHSGSIIGAKRFASGEAQKLSEVVKAEVQHEKSNYEAPDNIKKFLQTSGWKFEEQEGDVNMVLTKNVDGMKIIIDFQLVSPFQAEGENEAQAEMTDFSVTVEKPNKQGGITFYCTTLQNDEKFRYMIGNVKYYKNEEGKNSVSAYNGPEFEDLDDSLQTSLDEWLANLGVDSELCDFIDSCSIDKEQREYMSWLQNISNFIES", "values": [{"measurement": "soluble on expression in E. coli", "value": "soluble"}]}
{"sequence": "MGSDKIHHHHHHDEINKDHNHTTAVPAKMILTDVMTSTAFSVVSGDFNLYGGMYVEHETGSHNQFYYAETRSSCTSASTFNNSWGGTYSTLKDALISVKVAEEEQNFITKGIAELFVAYNLAILTDMYGDTPWKEACDYTVSMTPAIDKQEEIYKDIMAYVDAAIEDLQKPDLTSLSNQDLIYKGDASAWLKTAYGLKARYTMRLMGRSADVKGDMEKVLDYISKSYTSAAEQCSYAMYGVGVNINPFFGVFYSRLGEVASRSMFDKLNERNDPRIRRCYVEANSQTMIASKDDPLLNLAHNGDLVQSQLEYTVSMFCAAQTAPTHILSYHEVLFLKAEALCRLNRKDEAKAVLKEAVVAGMANMEVNIKSALASDYWGGFLNVTNEVTPEEAASYFDENVVPLFDANPLKETMIQKYISFWNADGESTECYNDVRRLKSLGEDIYGLQNPGKFPLRCPYGNDDTTTNPNIQAAYGDGQYVFTENVWWAGGTR", "values": [{"measurement": "soluble on expression in E. coli", "value": "not soluble"}]}
{"sequence": "MDPKPINEGMLLEDHDHGMPEEEEITEDDMNGIHNIEEDTRTISEIAMELHHPNKSQVLLDQERFLPIANVVRIMKTQMDPQAKLAKDAKECAQECVSEFISFIASEAAEICNITKRKTITADDLLTAMEATGFDNYAEPMRIFLQKYRQAHKITGPIHRTHPDYVRPPQFQMDPFVRPLFFDTEQGRRCTETQYVINGSEIVKNAPLGEEWNEQTGTLNTRADGYYMEEPMEPMPMEEVEIEEHEEIIEQDSLGAIALEQQGQMQIYVDPKTKQHFAAKETPNGMELYPLIIQDTPLQLENVSGPNQFVMNMPDGRAIPHGMGQEEPQPVSSSSVMRKIGQNPSSYAQQHHHVSHVEQHDDVEYEEEEEVDQVEEDTVPVPIAPRPAATRVQPKRTPTKRKK", "values": [{"measurement": "soluble on expression in E. coli", "value": "not soluble"}]}
{"sequence": "MAVPPTYVDLGKSARDIFTKGYGFGLIKLDLKTRSENGLEFKSSGSANTETSKVAGTLETKYKWAEHGLTFTEKWNTDNTLGTEITLEDQLTKGLKLTFDSSFSPNTGKKSGKIKSSYQREHINLGCDVDYDINGTAVHGALVLGLDGWLAGYQMTFEAGRNRITQSNFAVGYKTDEFQLHTNVNDGTEFGGSIYQKVNDNLETAVNLAWTAGNSNTRFGIAAKYQIDSDAAFSAKVNNSSLVGLGYTQTLKPGIKLTLSALLDGKNINAGGHKMGLGLEFEA", "values": [{"measurement": "soluble on expression in E. coli", "value": "soluble"}]}
{"sequence": "GPLGSPEFISLTSIPSLREQQHPLIRQLADCIEEVWHQHLDLSPYHLPAELGYVEGRLEGEKLTIENRCYQTPQFRKMHLELAKVGNMLDILHCVMFPRPEYDLPMFGCDLVGGRGQISAAIADLSPVHLDRTLPESYNSALTSLNTLNFSQPRELPEWGNIFSDFCIFVRPSSPEEEAMFLGRVREFLQVHCQGAIAASPVSAEQKQQILAGQHNYCSKQQQNDKTRRVLEKAFGVDWAENYMTTVLFDLPE", "values": [{"measurement": "soluble on expression in E. coli", "value": "soluble"}]}
{"sequence": "MSLTVPQSITELDLKNLTNRTFHPSPVAWEDQVLYFLLLDRFSDGKETGYRDNRGRRVAKGETPLYQPGDAGNAIRTEPEAAVWRESGSRWCGGTLKGLASKMGYLKRMGVTAVWVSPLFKQCSFVPTYHGYGIQNFLEVDPHFGTADDLRELVHVAHANGIYVILDIILNHAGNIFAYDRGYTPYDGSTVYPVTGFRSADGTPNLPFGPIDTKANPDAWPDGAVWPRELQAANAYTRMGHIRDWDSYHEYLDGDFFDLKDIHLGEGEVDAFRPSPALLALCEVYKYWIALSDVDGYRIDTVKHMGAGATRFFASVIHEFAQAIGKENFYLIGEITGGRDNAFNTLATTGLNAALGVDDIPLRLEDLVKGRANPADYFNLFRNSLLVRKESHVWFRDKVVTVIDDHDQVCRGAKKERFCAGDPKWRRLVLNALALNTTTLGIPCVYYGTEQAFDGEGGDDRYLRECMFGGPFGAFRTRGVQFFDEENPVYREFAKILALRREKLPLRRGRQYLREISGDGVTFGLPYVIGGEIRSVVPWSRIFDTEEMVLAINTDADSPRTAWVLVDGSLHREGDRFAYRYSTDPGQVRGTTAVQRINDAVQAIQVTVPAAGFVMLEQREGHHHHHH", "values": [{"measurement": "soluble on expression in E. coli", "value": "soluble"}]}
{"sequence": "MGSDKIHHHHHHMLKKSNIQWTAKQIAKMMDKGTLGFDNSVQRGLCWKTDKKILLIDSMFQNYPIPAFYAARNEDKTYDMLDGKQRCHAIKEFIEGKFKLDGIEEVELEDGESIDVNGMSFEELPEELQDRVKDYSLTVYFFLDLSDDQVSEMFYRLNNGKALSAIELTRVKAKSFDAIRELGNHEIFKNALTLKQVNKYTNEDIVIKTYAMLYTENPSFETKKIRPLMQDVEFTEQQKEEIKKAYSKILDIWKAINTEDKEHKKIAKRILTRTHLLTIIPIVIKSDKTIEELASWLLKFYSGKRRASISEKYNSAAGSGSARSESIKIRLEELKKDYNEYFSNQDEEINKKIEEIFKEGDSIE", "values": [{"measurement": "soluble on expression in E. coli", "value": "not soluble"}]}
{"sequence": "GSPLPWCPHLVAVCPIPAAGLDVTQPCGDCGTIQENWVCLSCYQVYCGRYINGHMLQHHGNSGHPLVLSYIDLSAWCYYCQAYVHHQALLDVKNIAHQNKFGEDMPHPH", "values": [{"measurement": "soluble on expression in E. coli", "value": "soluble"}]}
{"sequence": "MGSDKIHHHHHHMSTRMVTLHGRIVLRASIELLTGLHIGGAAGGLEIGGLDKPVIRNPITNQPYIPGSSLKGKLRSLMEKVYGAPQTFRINEGVFIHVPTNPEEYQRYYQIAGVFGTLPNHKQLTIDVPTRLIVRDVPLTRESEQELRRLRTDLPYTEIKWEAAIDRVTSAAAPRQIERVPAGAVFGPAEVVYSLYVGNGEQLSDVIRLFGSVYEAFTYLEDDYLGGMGSRGNGQVRLRDITVLARRLESGRYGELTTIREAKELRELDRNGLLEELQRFFNPA", "values": [{"measurement": "soluble on expression in E. coli", "value": "not soluble"}]}
{"sequence": "PAFALTSPWAGSDAAAIPDHGTVCKGQWQGQEVLGMRVTWDKRYITLAPVCTLLGLAFRLYDPDGLLGGRKDLGITCALVPHDHPGVDTGRRHFPLNAMFMNGPTRGTDVFMPLEFIIDG", "values": [{"measurement": "soluble on expression in E. coli", "value": "not soluble"}]}
{"sequence": "MSEKYIVTWDMLQIHARKLASRLMPSEQWKGIIAVSRGGLVPGALLARELGIRHVDTVAISSYDHDNQRELKVLKRAEGDGEGFIVIDDLVDTGGTAVAIREMYPKAHFVTIFAKPAGRPLVDDYVVDIPQDTWIEQPWDMGVVFVPPISGR", "values": [{"measurement": "soluble on expression in E. coli", "value": "soluble"}]}
{"sequence": "MKKAKKEKKEKIIKPDGPINFNRSIMAAFEKQSRGKICPLCETKFSLASYKSHMNTCNVADDDEEIEVIATYTRDEAILMRAGPEIILGDASFSDKSENPTKRRKTDEREVPSEDDIVPEVPGPSGIVKNHEMPSESLDVTEISENIEKVIKKSPEWINHRRRSSRLLQNSQKDQADNANKEDPVKKETATISEVLQAIERFEQRVSGPEQTWPYYIKITIKIMKRVISTEKFDGTFYADDFWLPSDIITFYRFVELLSEGAKCLLVRLFIRKPAWYNLEKLEQKYPEIPNIKEAVSELAKGHFIDDDSSMKTLDEALQISDVVALKNVTKKFKLDGTKNRQELIQSLRKFAQSQQSIFGGTGNVEKSILKSLKQELGPCVRVRGGFVDLFKCLFTIYCPVTTNSANVIDNPSTTNVYQDLLYLMLSVANGTVQFPAPNPCPIIASFYKNRNMLQDYMISKSLEIAIVSQMSNGNLDAALDLAIDAKEFIEQMSDDDKRYYESLEIHERKFTSIWVFTRCCGHASSILERQKKYGMAVEWQKDLLITNKDIQSYCIDSRGIWWDRMLLNLDSHLKEKKECAKMIQIALQDPSILEKELLMIQDRALKLKEMPADFVTPINIGNPEKKTITANVITKSLGDGRINRFMIRDHETDDDVECSVEEVTRRHYLENEGFSTGVHDEGSTWHTLFGLFFYDVIFATDESVESTWLSELQDCPSDLSNTLYSKRKEKFEDRFVWLEEAEQELIEENIRKIWDLKHNETNRECSWKQFPMGAEDCVSFFQCIPRPALILILRRLAENYRNSRSGFPDLTLWNPETKRVAVVEVKGPGDRLSTKQRLWLAIFADSGIRAEVCHVAAQNSRLLV", "values": [{"measurement": "soluble on expression in E. coli", "value": "not soluble"}]}
{"sequence": "MANPAAAAGPSGGARSFLQAVSTVTEEAPSPLRVVQMEGLAVLKIIKHCEEFAPALVTGQLLGLDVGSVLEVTNCFPFPMREDDEEADADGANYQLEMMRCLREVNVDNNTVGWYQSCLLGSFQTVELIETFMNYQENIRRCVCIVYDPSRSNQGVLALKALKLTDSFMDLYRNNGLTGEKLREKKLSWVDIFEEIPIKVSNSALVSAFMTELEPESPVSQCDFDRLKLSTAPFMERNLEFLIGCMDDLSSEQNKFQYYYRNVSRQQSQQQAWLQKRRQENMARKAAGEEPLPEEDPSNPIFKPIPEPSRLEGYLVTNQISSYCNHINGVAGQNFNRLYLMKALQED", "values": [{"measurement": "soluble on expression in E. coli", "value": "soluble"}]}
